Among the data in paper PMC6310132 (2016) are Kd values, retold here.

The labels stand for the following.
B1: snapin (protein)
chain: AAAGSAAVSGAGTPVAGPTGRDLFAEGLLEFLRPAVQQLDSHVHAVRESQVELREQIDNLATELCRINEDQKVALDLDPYVKKLLNARRRVVLVNNILQNAQERLRRLNHSVAKETARRRAMLDSGVYPPGSPSK

In assay [1] the target is T1, Dopamine D1A D1A4 (Rattus norvegicus, UniProt P18901).
T1 chain: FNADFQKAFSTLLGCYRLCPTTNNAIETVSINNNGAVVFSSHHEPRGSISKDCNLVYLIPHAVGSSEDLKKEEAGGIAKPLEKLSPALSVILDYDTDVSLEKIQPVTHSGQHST
In words: SPR. In general terms: In SPR one partner is held on a chip, and binding of the other changes the refractive index at the surface.

The target in assay [2] is B1. In words: SPR.

Consider B1, for which binding in assay [1] was characterised by a dissociation constant (Kd) of 0.0146 µM.

B2: otoferlin C2F (protein)
chain: DMPAPGTPLDISPRKPKKYELRVIVWNTDEVVLEDDDFFTGEKSSDIFVRGWLKGQQEDKQDTDVHYHSLTGEGNFNWRYLFPFDYLAAEEKIVMSKKESMFSWDETEYKIPARLTLQIWDADHFSADDFLGAIELDLNRFPRGAKTAKQCT
For the molecule B2, the Kd (as a rule, the constant that tells how readily two partners part at equilibrium) in assay [2] worked out at 0.0234 µM.
